For series [1], the target named is T1, DDX42 (Homo sapiens, UniProt Q86XP3 1-938).
T1 sequence: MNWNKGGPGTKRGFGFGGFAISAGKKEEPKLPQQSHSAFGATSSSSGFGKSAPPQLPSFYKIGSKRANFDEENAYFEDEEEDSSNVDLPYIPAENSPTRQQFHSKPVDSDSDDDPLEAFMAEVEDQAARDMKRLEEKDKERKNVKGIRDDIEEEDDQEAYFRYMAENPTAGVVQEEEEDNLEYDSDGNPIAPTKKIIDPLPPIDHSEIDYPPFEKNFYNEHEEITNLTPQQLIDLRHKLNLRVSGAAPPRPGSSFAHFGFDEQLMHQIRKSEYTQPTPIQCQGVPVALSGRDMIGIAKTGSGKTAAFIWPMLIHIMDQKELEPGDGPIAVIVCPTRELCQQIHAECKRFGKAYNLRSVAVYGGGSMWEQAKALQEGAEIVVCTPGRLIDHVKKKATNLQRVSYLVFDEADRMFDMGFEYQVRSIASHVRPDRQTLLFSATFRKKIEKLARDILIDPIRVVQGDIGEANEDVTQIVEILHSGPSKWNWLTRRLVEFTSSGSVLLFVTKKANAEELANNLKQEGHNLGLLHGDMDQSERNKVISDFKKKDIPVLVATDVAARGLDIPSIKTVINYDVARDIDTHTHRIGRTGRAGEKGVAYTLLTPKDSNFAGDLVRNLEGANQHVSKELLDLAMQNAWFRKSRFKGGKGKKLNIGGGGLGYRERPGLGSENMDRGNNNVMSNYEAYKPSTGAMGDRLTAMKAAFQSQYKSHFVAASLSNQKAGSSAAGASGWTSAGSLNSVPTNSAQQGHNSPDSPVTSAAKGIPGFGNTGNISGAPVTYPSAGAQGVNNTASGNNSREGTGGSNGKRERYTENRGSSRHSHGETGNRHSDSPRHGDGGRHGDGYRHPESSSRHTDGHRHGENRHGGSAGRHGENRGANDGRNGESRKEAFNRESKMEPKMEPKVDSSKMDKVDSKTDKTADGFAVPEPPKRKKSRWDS
The experiment in a line: ELISA; not detectable up to 200 nM DDX42; ELISA: 50 mM K2HPO4 pH 7.4, 100 mM KCl (or 100 mM LiCl), 3% BSA block, 0.1% Tween-20 washes; blocking at room temperature, DDX42 1 h; 50 nM biotin-oligo coating; oligos annealed in 10 mM Tris-HCl pH 7.4, 100 mM KCl. To be noted: protein: commercial, tags: N-terminal GST, label: 5' biotin.

Series [2] deals with T1, DDX42. Briefly: ELISA; 100 mM KCl; apparent Kd; ELISA: 50 mM K2HPO4 pH 7.4, 100 mM KCl (or 100 mM LiCl), 3% BSA block, 0.1% Tween-20 washes; blocking at room temperature, DDX42 1 h; 50 nM biotin-oligo coating; oligos annealed in 10 mM Tris-HCl pH 7.4, 100 mM KCl. As to conditions: protein: commercial; tags: N-terminal GST; label: 5' biotin; parallel G4 (CD verified). A general note: ELISA stands for enzyme-linked immunosorbent assay.

Series [3] concerns the target T1, DDX42. Briefly: ELISA; 100 mM KCl; apparent Kd, above the 200 nM top concentration; ELISA: 50 mM K2HPO4 pH 7.4, 100 mM KCl (or 100 mM LiCl), 3% BSA block, 0.1% Tween-20 washes; blocking at room temperature, DDX42 1 h; 50 nM biotin-oligo coating; oligos annealed in 10 mM Tris-HCl pH 7.4, 100 mM KCl. To be noted: protein: commercial; tags: N-terminal GST; label: 5' biotin; parallel G4 (CD verified).

For the molecule ACAGGGCUCCGCGAUGGCGGAGCCCAA (structured_RNA) [Stem loop (RNA hairpin)], the binding result with DDX42 [1] (hairpin) was “no binding”.

In the case of UGUAGAAAGAGCAGAUCUAGAUG (ssRNA) [NRAS mut (rG4 mut)], the binding result with DDX42 [1] (no G4) is recorded as “no binding”.

On to UGUGGGAGGGGCGGGUCUGGGUGC (structured_RNA) [NRAS G4 (rG4)], for which, in the series with DDX42 [2], the Kd was determined as 71.1 ± 3.5 nM.

In the case of TGAGGGTGGGTAGGGTGGGTAA (structured_DNA) [Myc G4 (dG4)], the Kd in the series with DDX42 [3] is 233 ± 23.5 nM.

The values above are taken from article PMC6615864, “Genetic interactions of G-quadruplexes in humans”.
